The data set can be described thus: yeast display, Sf9 membrane polyspecificity reagent, FACS + sequencing; frameworks hold sequencing errors. A digest of the protocol: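 Galactose-induced (36–48 hours) yeast carrying a synthetic nanobody display library were exposed to 10% biotinylated, detergent-solubilized Sf9 membrane reagent at 4 °C for 1 hour. FACS followed streptavidin microbead enrichment, using low and high (top ~1%) gates for expression (anti-HA) and reagent binding (streptavidin). Colony PCR, MiSeq 2 × 250 sequencing and CDR-length filtering followed. Labels for polyreactivity reflect the gate of origin.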
Turning to “QVQLVESGGGLVQAGRSLRLSCAASGRTFCYYAMGLYRKAPGKERELIAAITNRGGNTYYADSVKGRFTISRDNAKNTVYLQMNSLKPEDTAVYYCAAYNRIYGYHTLYYWGQGTQVTVST”, the “polyreactivity (PSR sort gate)” value is listed as “high polyreactivity”.

For “QVQLVESGGGLVQAGRSLRLSCAASGRTFGYNPMGWYRQAPGKEREFVAAISYSGTSTYYADSVKGRFTISRDNAKNTVYLQMNSLKPEDTAVYYCNAEALISWRYDYWGQGTQVTVSS”, the “polyreactivity (PSR sort gate)” value is given as “low polyreactivity”.

For the sequence “QVQLVESGGGLVQAGRSLRLSCAASGRTFPYNAMGWYRQAPGKERELVAAITWSGGSTYYADSVKGRFTISRDNAKNTVYLQMNSLKAEDTAVYYCNKDFPVFEYDYWGQGTQVTVSS”, the “polyreactivity (PSR sort gate)” value is reported as “low polyreactivity”.

As to “QVQLVESGGGLVQAGRSLRLSCAASGRTFPYNAMGWYRQAPGKESELVAAITSGGTTNYADSVKGRFTISRDNAKSTVYLQFNRLKPEDTAVYYCAADSDASSQFRRDYWGQGSQVTVSS”, the “polyreactivity (PSR sort gate)” value is given as “low polyreactivity”.

For “QVQLVESGGGLVQAGRSLRLSCAASGRTFRGYAMGWYRQAPGKERELVAAITWRGGSTYYADSVKGRFTISRDNGKNTVYLLMNSLKPEDCAVYYCNARQWPLAYEYWGLGTQVTVSS”, the “polyreactivity (PSR sort gate)” value is “high polyreactivity”.

As for “QVQLVESGGGLVQAGRSLRLSCAASGRTFVFNAMGWYRQAPGKERELVARITLSGGSTYYADSVKGRFTISRDNAKNTVYLQMNSLKPEDTAVYYCAASHYFWFVQNDSDYWGQGTQVTVSS”, the “polyreactivity (PSR sort gate)” value is “low polyreactivity”.

With “QVQLVESGGGLVQAGRSLRLSCAASGRTLHQYDMGWFRQAPGKEREFVAVIDSSDGSTYYADSVKGRFTISRDNVKNTVYLQMNSLKPEDSAVYYCLGGYYYLQYDYWGQGTQVTVSS”, the “polyreactivity (PSR sort gate)” value is recorded as “low polyreactivity”.

Regarding “QVQLVESGGGLVQAGRSLRLSCAASGRTYGIYAMGWYRQAPGKERQLVAAITWSGDSTYYADSVKGRFTISRDNAKNTVYLQMNSLKPEDTAVYYCAADYVGVTSVRYDYWGQGTQVTVSS”, the “polyreactivity (PSR sort gate)” value is recorded as “low polyreactivity”.

With “QVQLVESGGGLVQAGRSLRLSCAASGSIFRIYAMGWYGQAPGKERELVAAITWSGGGTYYADSVKGRFTNSRDNAKNTVYLQMYSLKPEDTAVYYCAADYWGYDIYYGLSERESWGQGTQVTVSS”, the “polyreactivity (PSR sort gate)” value was “high polyreactivity”.

For the sequence “QVQLVESGGGLVQAGRSLRLSCAASGSNFLTNTMGWYRQAPGKERELVAAITLRGGRTYYADSVKGRFTISRDNAKNTVYLHMNSLKPEDTAVYYCNARNYYYPSDRDYWGQGTQVTGSS”, the “polyreactivity (PSR sort gate)” value is “low polyreactivity”.

Consider “QVQLVESGGGLVQAGRSLRLSCAASGSTFDQYDMGWYRQAPGKERELVAAISQSGDRTYYADSVKARFTISRDYAKTTVYLQMNSLQPDDTAVYYCADDGVSQDYYYRYDYWGQCTQVTVSS”, for which the “polyreactivity (PSR sort gate)” value is “low polyreactivity”.

Turning to “QVQLVESGGGLVQAGRSLRLSCAASGSTLQNNGMGWYRQAPGKERELVAAISIGGDTNYADSVKGRFTISRDNAKNTEMNSMKPEDTAGYYCNTDYFGSQVVVIFDFWGQGTQVTVSS”, the “polyreactivity (PSR sort gate)” value was “low polyreactivity”.

In the case of “QVQLVESGGGLVQAGRSLRLSCAASGSTSERYDMGWYRQAPGKERELVATITWSGGDTHYADSVKGRFTISRDNAKNSVYLQLNSLKPEDTAVYYCAAEYTFVWGMWYDYWGQGTQVTVSS”, the “polyreactivity (PSR sort gate)” value was “low polyreactivity”.

Take “QVQLVESGGGLVQAGRSLRLSCAASVSIFRPNAMGWYRQAPGKERDLVAAISSSGGSTYYSDSVKGRFTISRDNAKNTVYLQMNSLKPDDTAVYYCAAESLSTWIHSRDSWGQGTQVTVSS”: the “polyreactivity (PSR sort gate)” value is reported as “low polyreactivity”.

As to “QVQLVESGGGLVQAGRSLRLSCPASGSIFIIYAMGWYRQQPGKERELVAAISASGGITYYADSVKGRFTISRDNAKNTVYLQMNRLKPEDTAVYYCAARRYRYFWVPRPYDYWGQGTQVTVSS”, the “polyreactivity (PSR sort gate)” value is given as “high polyreactivity”.

Regarding “QVQLVESGGGLVQAGRSLRLSSAASGSIVAPNPMGWYRQAPGKEREYVAAITLDDGRTYYADSVKGRFTISRDNSNNTVYLHMNSRKPEDTAVYYCNAEWRGYSVYWRTRYDSWGQGTHVTVSS”, the “polyreactivity (PSR sort gate)” value is listed as “low polyreactivity”.

With “QVQLVESGGGLVQAGRSLRLSSAASGSTFYYNPMGWYRQAPGKERELVAAISGGDSTYYADSVKGRFTISRDNAKNTVYLQMNSMKPEDTAVYYCAAASRRRSDGRRYGYWGQGTQVTVSS”, the “polyreactivity (PSR sort gate)” value is recorded as “high polyreactivity”.

Regarding “QVQLVESGGGLVQAGRSLRLTCAASGRTFWWYAMGWYRQAPGKEWEFVAAISQRGTSTYYADSVKGRFTISRDNAKNTVYLQMNSLKPEDTAVYDCAATVYPSWYVLFTARRMDYWGQGTQVTVSS”, the “polyreactivity (PSR sort gate)” value is “high polyreactivity”.

As to “QVQLVESGGGLVQAGRSLRVRCAASGSTFGLYAKGWYRQAPGKERELVADITWSGGTTYYADSVMGRFTFSRDNAKNTVYLEINSLKPEDTAVYYCAARYPWVYDDFDYWGQGTQVNVSS”, the “polyreactivity (PSR sort gate)” value was “low polyreactivity”.

On to “QVQLVESGGGLVQAGSSLRLSCAASGSTFVNNAMGWYRQAPGKERELVAAITSGGSTNYADSVKGRFTISRDNAKNTVYLQMNSLKPEDTAVYYCNADGDSWYTGIPAVSHGYWGQGTQVTVSS”, for which the “polyreactivity (PSR sort gate)” value is “low polyreactivity”.

Turning to “QVQLVESGGGLVQAGVSHRLSCAASGSIYYYYAMGWYRQAPGKESELVAGITTSGGSTYYAESVKVRFTISRDNAKNTVYLQMISLKPEDNAVYYCAAYDYISSTYFLDDYWGQGTQVTVSS”, the “polyreactivity (PSR sort gate)” value was “low polyreactivity”.

As for “QVQLVESGGGLVQAGVSLLLSCAATGIIFSYYAMGWYRQAPGKERELVAAISWNSGSTYYADSVKGRFTISRDNAKNTVYLQMNSLKPEDTAVYYCAAESYYSYSYYRPYEYYYWGQGNQVTVSS”, the “polyreactivity (PSR sort gate)” value is on record as “high polyreactivity”.

Turning to “QVQLVESGGGLVQAGVSLLLTCAASGRISFRYAMVWYRQAPGKERELVAAINRGGITNYADSVKGRFTISRDNAKNTVYLKMNSLKKEDTAVYYCAARYASPRYKSKMDYWGQGTQVTVSS”, the “polyreactivity (PSR sort gate)” value was “high polyreactivity”.

Turning to “QVQLVESGGGLVQAGVSLPLSCAASGIIFFSYAMGWYRPAPGKERELVAAITSRGTSTYYADSVKGRFTISRDNAKNTVYLQLISLKPEDTAVYYCAARWLWRASKVDYWGQGTQVTLSS”, the “polyreactivity (PSR sort gate)” value was “high polyreactivity”.

For the sequence “QVQLVESGGGLVQAGVSLRFSCAASGYIFDVNALGWYRQEPGKERELVAAISQRGTRTYYADSVKGRFTITRDNANNTVFLQMNSLKPEYTAVYYCNRGGWRQYDSWGQGTQVTVSS”, the “polyreactivity (PSR sort gate)” value was “high polyreactivity”.

For the sequence “QVQLVESGGGLVQAGVSLRLICAASGRTFGRSVMGWYRQAPGKERELVAAITSSSSSTYADSVKGRFTISRDNAKNTVYVQMNSLKPEDTEVYYCNKRYPSRHLPEYDYWGQGTQVSVSS”, the “polyreactivity (PSR sort gate)” value is “high polyreactivity”.

As for “QVQLVESGGGLVQAGVSLRLSCAASASTFSIYAMGWYRHAPGKERELVAAIDSGGRTKYADSVKGRFTISRDNAKNPVYLQMNSLKPEDTAVYYWAAVFRGWWLYDYWGLGTQVTVSS”, the “polyreactivity (PSR sort gate)” value is on record as “low polyreactivity”.

With “QVQLVESGGGLVQAGVSLRLSCAASGFILDYNTMGWYRQAPGKERELVAAISSSGDTTYYADSVKGRFTISRDNAKNTVYLQMNSLKREDTAVYYCAREYGVGYEYWGLGTQVTVSS”, the “polyreactivity (PSR sort gate)” value was “low polyreactivity”.

“QVQLVESGGGLVQAGVSLRLSCAASGFTFGRYAMGWYRQAPGKERELVAAISNSGGSTYYADSVKGRFTISRDNAKNTVYLQMNSLKPEATAVYYCAARDSYWSVYYWGQGTQVTVSS”: the “polyreactivity (PSR sort gate)” value is reported as “high polyreactivity”.

Regarding “QVQLVESGGGLVQAGVSLRLSCAASGLIFGQNAMGWYRQAPAKERELVAAISQRGGTYYADSVKGRFTISRDNSKNTVYLQMNSLKPEDTAVYYCAARVGLQPGRYYLRYDYWGQGTQVTVSS”, the “polyreactivity (PSR sort gate)” value is on record as “low polyreactivity”.

The values are drawn from the nanobody polyreactivity screen of Harvey et al. (2022).
